How the values were obtained:
DMAP1 [1] = biological target: DMAP1 (UniProt Q9NPF5); experiment: co-IP with anti-Flag antibody; conditions: reference: WT Flag-rBub3; sites S211
DMAP1 [2] = biological target: DMAP1 (UniProt Q9NPF5); experiment: pull-down of His-Bub3 and GST-DMAP1; conditions: sites S211
DMAP1 [3] = biological target: DMAP1 (UniProt Q9NPF5); experiment: co-IP; conditions: reference: WT Bub3, mitotic arrest; sites S211

Bub3 (from UniProt O43684) Flag-rBub3 S211A
binding against the reference (DMAP1 [1]): lost

Bub3 (from UniProt O43684) WT His-Bub3 with purified p38
binding against the reference (DMAP1 [2]; reference: WT His-Bub3 without p38): gained

Bub3 (from UniProt O43684) Bub3 S211A, mitotic arrest
binding against the reference (DMAP1 [3]): weaker

Bub3 (from UniProt O43684) His-Bub3 S211A
binding against the reference (DMAP1 [2]; reference: WT His-Bub3): lost

Reference: paper PMC6295060
